Laboratory results taken from US20260060994A1, “GLYCOSYLATED COMPOSITIONS AND METHODS OF USE” (Cy Biopharma AG, priority 2023, published 2026).

How the values were obtained:
Type in all cases: biochemical
[1] = Glycosylation of 4-OH-MiPT by GLY enzymes (UDP-glucose), LC-UV/MS; conditions: conditions of Examples 1 and 2 repeated for 4-OH-MiPT; estimate from UV peak areas
Protocol: (§1) The assay conditions were: • 100 mM Tris-HCl, pH 7.4 • 5 mM MgCl2 • 1 mM KCl • 1.25 mM UDP-glucose • 0.5 mM 4-OH-MET • 5% (v/v) DMSO • 0.1 U/uL Fast AP phosphatase • 25% (v/v) GLY enzyme
(§2) Incubation was 24 house at 30° C. Reactions were terminated adding 3 volumes of 75% (v/v) ethanol.
(§3) LC separation was performed using an Agligen 1290 Infinity II UHPLC equipped with a Phenomenex Kinetex XB-C18 column (1.7 um, 100 angstroms, 100×2.1 mm) and 4-HO-MET was detected by absorbance at 210 nm and 268 nm with an Agilent 1260 Infinity II DAD.
(§4) 0.1% Formic acid in water (A) and 0.1% Formic acid in acetonitrile (B) were used as the mobile phases for the elution gradient, with a flow rate of 0.4 ml/min. Retention time for 4-HO-MET using this type of instrument under these condition was 2.6 min. The system was coupled to an Ultivo Triple Quadrupole MS. To verify the presence of possible glycoside products, as SIM (Selected Ion Monitoring) method was used on the MS to analyse for the m/z 381 (theoretical mass to chart ratio of 4-HO-MET-glucoside) and m/z 219 (theoretical mass to charge ratio of 4-HO-MET).
(§5) The enzymes giving the additional peak putatively corresponding to the 4-HO-MET-β-D-glucoside are listed below. […] A correct quantification of the product is not possible without a standard for the specific molecule. However, based on the assumption that the ratio area-to-concentration in the UV chromatograms will be similar to 4-HO-MET, estimates of the relative abundance for the additional peak are also given, expressed as percentage of converted 4-HO-MET. GLY enzymes hits are ranked according to their estimated conversion efficiency.
(§6) The experiments described in Examples 1 and 2 above were repeated for 4-OH-MiPT, 4-HO-DMT and 5-HO-DMT
Below is the corresponding data for 4-OH-MiPT.

[2] = Glycosylation of 5-HO-DMT by GLY enzymes (UDP-glucose), LC-UV/MS; conditions: conditions of Examples 1 and 2 repeated for 5-HO-DMT
Protocol: as §1, §2, §3, §4, §5, §6
(§7) Below is the corresponding data for 4-OH-DMT and 5-HO-DMT.

[3] = Glycosylation of 4-OH-DMT by GLY enzymes (UDP-glucose), LC-UV/MS; conditions: conditions of Examples 1 and 2 repeated for 4-HO-DMT; estimate from UV peak areas
Protocol: as §1, §2, §3, §4, §5, §6, §7

[4] = Glycosylation of 4-OH-EPT by GLY enzymes (UDP-glucose), LC-UV/MS; conditions: conditions of Examples 1 and 2 repeated for 4-OH-EPT; estimate from UV peak areas
Protocol: as §1, §2, §3, §4, §5
The experiments described in Examples 1 and 2 above were repeated for 4-OH-EPT.
Below is the corresponding data for 4-OH-EPT.

[5] = Glycosylation of 4-HO-MET by GLY enzymes (UDP-glucose), LC-UV/MS; conditions: 0.5 mM 4-OH-MET, 1.25 mM UDP-glucose, 25% (v/v) GLY enzyme, 24 h at 30° C.; estimate from UV peak areas
Protocol: 4-HO-MET was dissolved in 100% (v/v) DMSO to a concentration of 10 mM. The solution was stored at −20° C. prior to use.
FastAP phosphatase (1 U/uL) from ThermoFisher Scientific (catalog no. EF0651).
GLY enzyme suspensions contain 10 mM Tris-HCl at pH7.4, 250 mM imidazole and 50% (v/v) glycerol.
as §1, §2, §3, §4
As standard, 4-HO-MET solutions at a concentrations of 500, 250, 125, 62.5, and 31.25 uM were prepared from the 10 mM stock and used for caliboration.
A representative example of the chromatograms obtained with a wavelength of 268 nm for the standard solutions resuspended in the reaction buffer, and the corresponding MS-SIM signal, is shown in FIG. 16. The peak corresponding to 4-HO-MET is indicated.
When analyzing the GLY reactions, 30 of them gave an additional peak with retention time 2.2 min (i.e. in the expected region for a 4-HO-MET glucoside) and molecular mass compatible with the expected glucoside product, together with a corresponding decrease in substrate concentration, compared to the no-enzyme controls.
The method was repeated using various GLY enzymes to produce 4-HO-MET glucosides.
as §5

B1: GLY87: glycosyltransferase (UGT), SEQ ID NO: 10 (protein)
chain: MGKQEDAELVIIPFPFSGHILATIELAKRLISQDNPRIHTITILYWGLPFIPQADTIAFLRSLVKNEPRIRLVTLPEVQDPPPMELFVEFAESYILEYVKKMVPIIREALSTLLSSRDESGSVRVAGLVLDFFCVPMIDVGNEFNLPSYIFLTCSAGFLGMMKYLPERHREIKSEFNRSFNEELNLIPGYVNSVPTKVLPSGLFMKETYEPWVELAERFPEAKGILVNSYTALEPNGFKYFDRCPDNYPTIYPIGPILNLENKKDDAKTDEIMRWLNEQPESSVVFLCFGSMGSFNEKQVKEIAVAIERSGHRFLWSLRRPTPKEKIEFPKEYENLEEVLPEGFLKRTSSIGKVIGWAPQMAVLSHPSVGGFVSHCGWNSTLESMWCGVPMAAWPLYAEQTLNAFLLVVELGLAAEIRMDYRTDTKAGYDGGMEVTVEEIEDGIRKLMSDGEIRNKVKDVKEKSRAAVVEGGSSYASIGKFIEHVSNVTI
With B1 the “4-OH-MiPT GLY % (percentage of converted 4-OH-MiPT)” value [1] was 76.4%, the “5-OH-DMT GLY %” value [2] was 3% and the “4-OH-DMT GLY %” value [3] was 85.3%. The “4-OH-EPT GLY % (percentage of converted 4-OH-EPT)” value [4] was 68.9% and the “4-OH-MET GLY % (percentage of converted 4-HO-MET)” value [5] was 95.2%.
